The target of assay [1] is T1, uPAR^1−283 (Homo sapiens, UniProt Q03405).
T1 construct: 10 μg/mL uPAR^1−283 in 10 mM sodium acetate pH 5.0 was covalently immobilized on a CM5 sensor chip; made in house
Nature of the assay: SPR binding kinetics of peptides to immobilized uPAR (Biacore T200, single cycle). To be noted: NB = no binding; for kon / koff: uPAR immobilized on CM5 chip, peptide in solution, global fit, ± standard error of fit; for kon: five serial 2-fold dilutions, 10 mM HEPES, 150 mM NaCl, 3 mM EDTA, 0.05% P-20, pH 7.4, 20°C, read-out: kon (association rate constant); for koff: read-out: koff (dissociation rate constant). How it is done: Binding kinetics of the peptides-uPAR interactions were determined with surface plasmon resonance (SPR) on a Biacore T200™ system (Cytiva), as outlined ([10]). In brief; 10 μg/mL uPAR^1−283 in 10 mM sodium acetate pH 5.0 was covalently immobilized on a CM5 sensor chip via amine coupling yielding a surface density of 905-1,333 RU (~26–39 fmol/mm^2) ([11]). Subsequently, we measured the binding kinetics of the various peptides to immobilized uPAR with single cycle protocols in which the peptides were injected as five serial 2-fold dilutions for 200 s with a short dissociation phase in between (100 s). The last analyte injection was followed by a 1,000 s long dissociation phase. In the end of each cycle, two consecutive injections of 0.1 M acetic acid in 0.5 M NaCl regenerated the sensor chip. All experiments were run with a flowrate of 50 μl/min in 10 mM HEPES, 150 mM NaCl, 3 mM EDTA, and 0.05% (v/v) surfactant P-20 at pH 7.4 at 20°C. The kinetic rate constants (kon and koff) as well as the KD (koff/kon) were determined by non-linear regression fitting of the curves to a simple bimolecular interaction model. We applied the BiacoreT200 Evaluation^TM 3.0 software for the global fitting. Additional binding kinetic curves is provided in the Supplementary Material.
For orientation: In SPR one partner is held on a chip, and binding of the other changes the refractive index at the surface.

Another assay addresses uPAR·uPA interaction (Homo sapiens, UniProt Q03405). Kind of assay: SPR competition of the uPAR·uPA interaction (uPAR in solution, immobilized pro-uPA^S356A). Type of assay: binding. To be noted: 2 nM uPAR incubated with 3-fold dilution series of peptide (0.076 nM to 1.5 μM), pH 7.4, 20°C, four-parameter dose-response fit, n = 3, ± standard error. The procedure:
The IC50-values of RESCA-AE105, NOTA-AE105, AE105 (Asp-Cha-Phe-(D)Ser-(D)Arg-Tyr-Leu-Trp-Ser) and AE105-mut (Asp-Cha-Glu-(D)Ser-(D)Arg-Tyr-Leu-Glu-Ser) on the uPAR·uPA interaction were determined with SPR on a Biacore 3000™ instrument or a Biacore T200™ system (Cytiva). The set-up is overall as described previously ([12]). In brief, we obtained a high surface density of pro-uPA^S356A by immobilizing >5,000 RU (~ 0.1 pmol pro-uPA/mm^2) on a CM5 sensor chip. […] For the analysis, we incubated 2 nM uPAR with a 3-fold dilution series of the peptides (ranging from 0.076 nM to 1.5 μM) and the νobs was measured for 300 s at 20°C with a flow rate of 50 μL/min. The running buffer contained 10 mM HEPES, 150 mM NaCl, 3 mM EDTA and 0.05 % (v/v) surfactant P20, pH 7.4. The sensor chip was regenerated with two consecutive injections of 0.1 M acetic acid, 0.5 M NaCl in the end of each cycle. In parallel, we measured a standard curve (2-fold dilution of uPAR covering 0.06–2 nM). This standard curve included one repeated concentration point at the end to validate the biological integrity of the sensor chip.

Assay [2] deals with T2, uPAR^1−283 (UniProt Q03405-1 23-305). Kind of assay: SPR; uPAR^1−283 immobilised on a CM5 chip by amine coupling (905-1,333 RU); peptides injected in single cycle protocols, five serial 2-fold dilutions; 10 mM HEPES, 150 mM NaCl, 3 mM EDTA, 0.05% P-20, pH 7.4, 20°C; Biacore T200; simple bimolecular model, global fit. To be noted: both partners purified.
T2 sequence (Q03405 23-305): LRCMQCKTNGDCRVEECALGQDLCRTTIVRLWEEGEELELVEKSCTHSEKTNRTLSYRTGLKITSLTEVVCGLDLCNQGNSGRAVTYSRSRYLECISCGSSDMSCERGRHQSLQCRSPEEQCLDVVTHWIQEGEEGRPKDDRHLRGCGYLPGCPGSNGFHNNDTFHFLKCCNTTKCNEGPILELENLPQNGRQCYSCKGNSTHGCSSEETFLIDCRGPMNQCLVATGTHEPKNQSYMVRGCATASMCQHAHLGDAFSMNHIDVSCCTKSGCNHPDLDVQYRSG
Assay [3] concerns the target T2, uPAR^1−283. Kind of assay: SPR; competition in solution: 2 nM uPAR incubated with 3-fold dilution series of the peptides (0.076 nM to 1.5 μM), free uPAR read by its association rate on pro-uPA^S356A immobilised at high density (>5,000 RU) on a CM5 chip; 10 mM HEPES, 150 mM NaCl, 3 mM EDTA, 0.05% P20, pH 7.4, 20°C; four-parameter dose-response fit, n = 3. The settings on record: both partners purified.

Where a SMILES comes first, the peptide text is derived from it. Where no end group is shown, it is not given here. [ ]: non-standard residue; d: D form. Cha = N[C@@H](CC1CCCCC1)C(=O)O

As a reminder, the kon is a measure of how fast the partners come together. The koff is a measure of how fast the partners let go of each other. Usually IC50 stands for the point on the concentration scale where inhibition reaches its midpoint. Read a low IC50 as higher potency.

T1 sequence (Q03405 23-305): as above
uPAR·uPA interaction, sequence (Q03405 23-305 limits assumed): as the sequence (Q03405 23-305) above

In the case of `CC(C)C[C@H](NC(=O)[C@H](Cc1ccc(O)cc1)NC(=O)[C@@H](CCCNC(=N)N)NC(=O)[C@@H](CO)NC(=O)[C@H](Cc1ccccc1)NC(=O)[C@H](CC1CCCCC1)NC(=O)[C@@H](N)CC(=O)O)C(=O)N[C@@H](Cc1c[nH]c2ccccc12)C(=O)N[C@@H](CO)C(=O)O` [AE105], the kon on uPAR^1−283 [1] was determined as 1.01e+06 ± 3000 M⁻¹ s⁻¹. Also, the koff on uPAR^1−283 [1] (pH 7.4, 20°C) is 0.00413 ± 1e-05 s⁻¹.
The molecule `CC(C)C[C@H](NC(=O)[C@H](Cc1ccc(O)cc1)NC(=O)[C@@H](CCCNC(=N)N)NC(=O)[C@@H](CO)NC(=O)[C@H](CCC(=O)O)NC(=O)[C@H](CC1CCCCC1)NC(=O)[C@@H](N)CC(=O)O)C(=O)N[C@@H](CCC(=O)O)C(=O)N[C@@H](CO)C(=O)O` [AE105mut] (H-D[Cha]E[dS][dR]YLES-OH) returned an IC50 on uPAR·uPA interaction greater than 1000 nM. The Kd at uPAR^1−283 [1] (immobilized uPAR, pH 7.4, 20°C, simple bimolecular interaction model, read-out: KD (equilibrium dissociation constant, koff/kon)) was greater than 200 nM.
`CC(C)C[C@H](NC(=O)[C@H](Cc1ccc(O)cc1)NC(=O)[C@@H](CCCNC(=N)N)NC(=O)[C@@H](CO)NC(=O)[C@H](Cc1ccccc1)NC(=O)[C@H](CC1CCCCC1)NC(=O)[C@H](CC(=O)O)NC(=O)c1ccc(CN(CC(=O)O)[C@@H]2CCCC[C@H]2N(CC(=O)O)CC(=O)O)cc1)C(=O)N[C@@H](Cc1c[nH]c2ccccc12)C(=O)N[C@@H](CO)C(=O)O` [RESCA1-AE105]: the kon on uPAR^1−283 [1] was found to be 292000 ± 1000 M⁻¹ s⁻¹. For the same molecule, the koff at uPAR^1−283 [1] (pH 7.4, 20°C) came out at 0.014 ± 2e-05 s⁻¹.

B1: RESCA1-AE105 (peptide)
chain: DXFSRYLWS
modifications: RESCA1 chelator conjugated at the N-terminal; Cha (cyclohexylalanine) at position 2; (D)Ser at position 4; (D)Arg at position 5
On to B1, for which, in the assay with uPAR^1−283 [2], the Kd amounted to 48 nM. Also, the IC50 with uPAR^1−283 [3] was 76.7 nM.

B2: AE105 (peptide)
chain: DXFSRYLWS
modifications: Cha (cyclohexylalanine) at position 2; (D)Ser at position 4; (D)Arg at position 5
As for B2, in the assay with uPAR^1−283 [2], the Kd is 4.1 nM. The IC50 with uPAR^1−283 [3] amounted to 8.86 nM.

B3: NOTA-AE105 (peptide)
chain: DXFSRYLWS
modifications: NOTA chelator conjugated at the N-terminal; Cha (cyclohexylalanine) at position 2; (D)Ser at position 4; (D)Arg at position 5
For B3, in the assay with uPAR^1−283 [2], the koff was determined as 0.0125 s⁻¹ and the kon was 224000 M⁻¹ s⁻¹.

B4: AE105-mut (peptide)
chain: D[Cha]E[dS][dR]YLES
With B4, the IC50 with uPAR^1−283 [3] is greater than 1000 nM.

(Values after PMC11440976, “Optimization and Evaluation of Al^18F Labeling Using a NOTA—or RESCA1-Conjugated AE105 Peptide Antagonist of uPAR” (Frontiers in Nuclear Medicine, 2021).)
